The target in experiment [1] is human PD1 on Jurkat/AP1-luc/hPD1 cells (human) (UniProt Q15116). The experiment can be described thus: cell-based or functional assay.
For experiment [2], the target named is human 4-1BB expressed with a C-terminal myc-myc-hexahistidine tag (h4-1BB.mmH) (human). Description: blocking ELISA, 0.25 nM h4-1BB-mmh binding to coated 6His-Flag-h4-1BBL.
human 4-1BB expressed with a C-terminal myc-myc-hexahistidine tag (h4-1BB.mmH) (human), sequence (chain, as listed by the source limits assumed): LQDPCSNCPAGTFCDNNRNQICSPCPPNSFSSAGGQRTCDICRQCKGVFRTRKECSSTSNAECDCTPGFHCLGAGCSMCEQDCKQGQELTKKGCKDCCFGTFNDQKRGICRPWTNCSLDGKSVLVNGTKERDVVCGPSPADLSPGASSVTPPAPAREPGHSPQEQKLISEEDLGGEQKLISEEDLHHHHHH

human PD1 on Jurkat/AP1-luc/hPD1 cells (human), sequence (Q15116 25-288): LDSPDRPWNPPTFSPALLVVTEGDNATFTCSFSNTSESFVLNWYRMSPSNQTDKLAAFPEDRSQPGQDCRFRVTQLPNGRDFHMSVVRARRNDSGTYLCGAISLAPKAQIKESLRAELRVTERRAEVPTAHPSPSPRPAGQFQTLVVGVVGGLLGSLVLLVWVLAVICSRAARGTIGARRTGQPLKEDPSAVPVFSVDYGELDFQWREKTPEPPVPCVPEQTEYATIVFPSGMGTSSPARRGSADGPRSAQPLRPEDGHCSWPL

B1: REGN2810 (antibody, INN chains, looked up, V domains shown)
VH: EVQLLESGGVLVQPGGSLRLSCAASGFTFSNFGMTWVRQAPGKGLEWVSGISGGGRDTYFADSVKGRFTISRDNSKNTLYLQMNSLKGEDTAVYYCVKWGNIYFDYWGQGTLVTVSS
VL: DIQMTQSPSSLSASVGDSITITCRASLSINTFLNWYQQKPGKAPNLLIYAASSLHGGVPSRFSGSGSGTDFTLTIRTLQPEDFATYYCQQSSNTPFTFGPGTVVDFR
As to B1, in experiment [1], the AP-1 luciferase EC50, Jurkat/AP1-luc/hPD1 + WSU-DLCL2/hPD-L1 + CD20xCD3 was found to be 0.29 nM and the AP-1 luciferase MAX (RLU), Jurkat/AP1-luc/hPD1 + WSU-DLCL2/hPD-L1 + CD20xCD3 came out at 1.1e+06 RLU.

B2: Comparator 1 (antibody, INN chains, looked up, V domains shown)
VH: EVQLVQSGAEVKKPGESLRISCKGSGYSFSTYWISWVRQMPGKGLEWMGKIYPGDSYTNYSPSFQGQVTISADKSISTAYLQWSSLKASDTAMYYCARGYGIFDYWGQGTLVTVSS
VL: SYELTQPPSVSVSPGQTASITCSGDNIGDQYAHWYQQKPGQSPVLVIYQDKNRPSGIPERFSGSNSGNTATLTISGTQAMDEADYYCATYTGFGSLAVFGGGTKLTVLG
B2 yielded a % Blocking at 100 nM mAb in experiment [2] of 72%.

(Values after US20250043017A1.)
